To fix the notation:
B1: Interleukin-10 receptor subunit alpha (Mus musculus), Q61727 (parent)
chain: MLSRLLPFLVTISSLSLEFIAYGTELPSPSYVWFEARFFQHILHWKPIPNQSESTYYEVALKQYGNSTWNDIHICRKAQALSCDLTTFTLDLYHRSYGYRARVRAVDNSQYSNWTTTETRFTVDEVILTVDSVTLKAMDGIIYGTIHPPRPTITPAGDEYEQVFKDLRVYKISIRKFSELKNATKRVKQETFTLTVPIGVRKFCVKVLPRLESRINKAEWSEEQCLLITTEQYFTVTNLSILVISMLLFCGILVCLVLQWYIRHPGKLPTVLVFKKPHDFFPANPLCPETPDAIHIVDLEVFPKVSLELRDSVLHGSTDSGFGSGKPSLQTEESQFLLPGSHPQIQGTLGKEESPGLQATCGDNTDSGICLQEPGLHSSMGPAWKQQLGYTHQDQDDSDVNLVQNSPGQPKYTQDASALGHVCLLEPKAPEEKDQVMVTFQGYQKQTRWKAEAAGPAECLDEEIPLTDAFDPELGVHLQDDLAWPPPALAAGYLKQESQGMASAPPGTPSRQWNQLTEEWSLLGVVSCEDLSIESWRFAHKLDPLDCGAAPGGLLDSLGSNLVTLPLISSLQVEE
B2: Interleukin-10 receptor subunit alpha (Homo sapiens), Q13651 (parent)
chain: MLPCLVVLLAALLSLRLGSDAHGTELPSPPSVWFEAEFFHHILHWTPIPNQSESTCYEVALLRYGIESWNSISNCSQTLSYDLTAVTLDLYHSNGYRARVRAVDGSRHSNWTVTNTRFSVDEVTLTVGSVNLEIHNGFILGKIQLPRPKMAPANDTYESIFSHFREYEIAIRKVPGNFTFTHKKVKHENFSLLTSGEVGEFCVQVKPSVASRSNKGMWSKEECISLTRQYFTVTNVIIFFAFVLLLSGALAYCLALQLYVRRRKKLPSVLLFKKPSPFIFISQRPSPETQDTIHPLDEEAFLKVSPELKNLDLHGSTDSGFGSTKPSLQTEEPQFLLPDPHPQADRTLGNREPPVLGDSCSSGSSNSTDSGICLQEPSLSPSTGPTWEQQVGSNSRGQDDSGIDLVQNSEGRAGDTQGGSALGHHSPPEPEVPGEEDPAAVAFQGYLRQTRCAEEKATKTGCLEEESPLTDGLGPKFGRCLVDEAGLHPPALAKGYLKQDPLEMTLASSGAPTGQWNQPTEEWSLLALSSCSDLGISDWSFAHDLAPLGCVAAPGGLLGSFNSDLVTLPLISSLQSSE

The values that follow come from IntAct's records for PubMed 22087322.

One assay covers variants of B1. The settings on record: with fbw1a_human BTRC.
As for MLSRLLPFLVTISSLSLEFIAYGTELPSPSYVWFEARFFQHILHWKPIPNQSESTYYEVALKQYGNSTWNDIHICRKAQALSCDLTTFTLDLYHRSYGYRARVRAVDNSQYSNWTTTETRFTVDEVILTVDSVTLKAMDGIIYGTIHPPRPTITPAGDEYEQVFKDLRVYKISIRKFSELKNATKRVKQETFTLTVPIGVRKFCVKVLPRLESRINKAEWSEEQCLLITTEQYFTVTNLSILVISMLLFCGILVCLVLQWYIRHPGKLPTVLVFKKPHDFFPANPLCPETPDAIHIVDLEVFPKVSLELRDSVLHGSTDAGFGAGKPSLQTEESQFLLPGSHPQIQGTLGKEESPGLQATCGDNTDAGICLQEPGLHSSMGPAWKQQLGYTHQDQDDSDVNLVQNSPGQPKYTQDASALGHVCLLEPKAPEEKDQVMVTFQGYQKQTRWKAEAAGPAECLDEEIPLTDAFDPELGVHLQDDLAWPPPALAAGYLKQESQGMASAPPGTPSRQWNQLTEEWSLLGVVSCEDLSIESWRFAHKLDPLDCGAAPGGLLDSLGSNLVTLPLISSLQVEE [S320A;S324A;S367A], the “effect of a mutation on the interaction” value was “disrupting interaction strength”.
On the same count and under the same terms, the result for MLSRLLPFLVTISSLSLEFIAYGTELPSPSYVWFEARFFQHILHWKPIPNQSESTYYEVALKQYGNSTWNDIHICRKAQALSCDLTTFTLDLYHRSYGYRARVRAVDNSQYSNWTTTETRFTVDEVILTVDSVTLKAMDGIIYGTIHPPRPTITPAGDEYEQVFKDLRVYKISIRKFSELKNATKRVKQETFTLTVPIGVRKFCVKVLPRLESRINKAEWSEEQCLLITTEQYFTVTNLSILVISMLLFCGILVCLVLQWYIRHPGKLPTVLVFKKPHDFFPANPLCPETPDAIHIVDLEVFPKVSLELRDSVLHGSTDAGFGAGKPSLQTEESQFLLPGSHPQIQGTLGKEESPGLQATCGDNTDSGICLQEPGLHSSMGPAWKQQLGYTHQDQDDSDVNLVQNSPGQPKYTQDASALGHVCLLEPKAPEEKDQVMVTFQGYQKQTRWKAEAAGPAECLDEEIPLTDAFDPELGVHLQDDLAWPPPALAAGYLKQESQGMASAPPGTPSRQWNQLTEEWSLLGVVSCEDLSIESWRFAHKLDPLDCGAAPGGLLDSLGSNLVTLPLISSLQVEE [S320A;S324A] reads “decreasing interaction strength”.

The next assay covers variants of B2. The settings on record: with fbw1a_human BTRC.
Take MLPCLVVLLAALLSLRLGSDAHGTELPSPPSVWFEAEFFHHILHWTPIPNQSESTCYEVALLRYGIESWNSISNCSQTLSYDLTAVTLDLYHSNGYRARVRAVDGSRHSNWTVTNTRFSVDEVTLTVGSVNLEIHNGFILGKIQLPRPKMAPANDTYESIFSHFREYEIAIRKVPGNFTFTHKKVKHENFSLLTSGEVGEFCVQVKPSVASRSNKGMWSKEECISLTRQYFTVTNVIIFFAFVLLLSGALAYCLALQLYVRRRKKLPSVLLFKKPSPFIFISQRPSPETQDTIHPLDEEAFLKVSPELKNLDLHGSTDAGFGATKPSLQTEEPQFLLPDPHPQADRTLGNREPPVLGDSCSSGSSNSTDAGICLQEPSLSPSTGPTWEQQVGSNSRGQDDSGIDLVQNSEGRAGDTQGGSALGHHSPPEPEVPGEEDPAAVAFQGYLRQTRCAEEKATKTGCLEEESPLTDGLGPKFGRCLVDEAGLHPPALAKGYLKQDPLEMTLASSGAPTGQWNQPTEEWSLLALSSCSDLGISDWSFAHDLAPLGCVAAPGGLLGSFNSDLVTLPLISSLQSSE [S319A;S323A;S370A]: the “effect of a mutation on the interaction” value is on record as “disrupting interaction strength”.
On the same count and under the same terms, the result for MLPCLVVLLAALLSLRLGSDAHGTELPSPPSVWFEAEFFHHILHWTPIPNQSESTCYEVALLRYGIESWNSISNCSQTLSYDLTAVTLDLYHSNGYRARVRAVDGSRHSNWTVTNTRFSVDEVTLTVGSVNLEIHNGFILGKIQLPRPKMAPANDTYESIFSHFREYEIAIRKVPGNFTFTHKKVKHENFSLLTSGEVGEFCVQVKPSVASRSNKGMWSKEECISLTRQYFTVTNVIIFFAFVLLLSGALAYCLALQLYVRRRKKLPSVLLFKKPSPFIFISQRPSPETQDTIHPLDEEAFLKVSPELKNLDLHGSTDSGFGSTKPSLQTEEPQFLLPDPHPQADRTLGNREPPVLGDSCSSGSSNSTDAGICLQEPSLSPSTGPTWEQQVGSNSRGQDDSGIDLVQNSEGRAGDTQGGSALGHHSPPEPEVPGEEDPAAVAFQGYLRQTRCAEEKATKTGCLEEESPLTDGLGPKFGRCLVDEAGLHPPALAKGYLKQDPLEMTLASSGAPTGQWNQPTEEWSLLALSSCSDLGISDWSFAHDLAPLGCVAAPGGLLGSFNSDLVTLPLISSLQSSE [S370A] reads “decreasing interaction strength”; that for MLPCLVVLLAALLSLRLGSDAHGTELPSPPSVWFEAEFFHHILHWTPIPNQSESTCYEVALLRYGIESWNSISNCSQTLSYDLTAVTLDLYHSNGYRARVRAVDGSRHSNWTVTNTRFSVDEVTLTVGSVNLEIHNGFILGKIQLPRPKMAPANDTYESIFSHFREYEIAIRKVPGNFTFTHKKVKHENFSLLTSGEVGEFCVQVKPSVASRSNKGMWSKEECISLTRQYFTVTNVIIFFAFVLLLSGALAYCLALQLYVRRRKKLPSVLLFKKPSPFIFISQRPSPETQDTIHPLDEEAFLKVSPELKNLDLHGSTDAGFGATKPSLQTEEPQFLLPDPHPQADRTLGNREPPVLGDSCSSGSSNSTDSGICLQEPSLSPSTGPTWEQQVGSNSRGQDDSGIDLVQNSEGRAGDTQGGSALGHHSPPEPEVPGEEDPAAVAFQGYLRQTRCAEEKATKTGCLEEESPLTDGLGPKFGRCLVDEAGLHPPALAKGYLKQDPLEMTLASSGAPTGQWNQPTEEWSLLALSSCSDLGISDWSFAHDLAPLGCVAAPGGLLGSFNSDLVTLPLISSLQSSE [S319A;S323A], “decreasing interaction strength”.
